Experiment [1] concerns the target T1, CHO cells expressing CD163 (Homo sapiens, UniProt Q86VB7).
T1 construct: Stably transfected Chinese hamster ovary (CHO) cells expressing the full-length human CD163; expressed in transfected cells
Put plainly: CD163 antibody binding and uptake in CHO cells expressing CD163 (confocal microscopy). As to conditions: 0 or 30 minutes, FIG. 7. The experiment is classed as cell-based. How it is done: Monocytes were isolated from PBMC by negative selection using magnetic beads from Dynal (Dynabeads® MyPure™ Monocyte Kit 2; Invitrogen A/S, Taastrup, Denmark) according to instructions provided by the manufacturer. Monocyte preparations were more than 95% (CD14^+) pure determined by flow cytometry. The isolated cells were washed twice with phosphate-buffered saline. Monocyte-derived macrophages (MDMs) were prepared by cell culture of monocytes (approximately 1×10^7 cells) for 4 days in 5% CO2 and 37° C. in RPMI 1640 media (RPMI 1640+25 mM HEPES+I-glutamine) (Invitrogen Corporation, Carlsbad, Calif., USA) with 20% FCS containing 100 ng/ml of M-CSF. MDMs were then detached from the flask by incubation with cell dissociation buffer (Invitrogen A/S, Taastrup, Denmark) for 30 minutes at 4 °C, then flushed, and scraped. […]
MDMs or CHO cells were washed with 4° C. cold D-PBS, pH 7.4, containing 1% BSA in Lab-Tek™ Chamber Slides (Thermo Fisher Scientific, Roskilde, Denmark). […] Fluorescence was visualized using a Zeiss Axiovert 200M microscope (Carl Zeiss GmbH, Jena, Germany) with an ×100 oil-immersion objective. […] Alternatively, immunostained cells were analyzed by confocal immunofluorescence microscopy using a Zeiss LSM-510 confocal microscope (Carl Zeiss GmbH, Jena, Germany). […]

In the next experiment the target is CD163 (Homo sapiens, UniProt Q86VB7). Put plainly: Surface plasmon resonance (Biacore) analysis of mAb binding to immobilized CD163. On the procedure:
(§1) SPR analysis of the binding of mAbs to CD163 was carried out on a Biacore 2000 instrument (Biacore, Uppsala, Sweden). The Biacore sensor chips (type CM5) were activated with a 1:1 mixture of 0.2 M N-ethyl-N′-(3-dimethylaminopropyl) carbodiimide and 0.05 M N-hydroxysuccimide in water. Purified recombinant CD163 were immobilized in 10 mM sodium acetate, pH 4.0, and the remaining binding sites were blocked with 1 M ethanolamine, pH 8.5. The SPR signal generated from immobilized recombinant CD163 proteins corresponded to 40-70 fmol of protein/mm^2. Sensorgrams were generated using mAb concentrations ranging from 5-100 nM. The flow cells were regenerated with 1.6 M glycine-HCl, pH 3. The running buffer used for the experiment was either CaHBS 10 mM Hepes, 150 mM NaCl, 3.0 mM CaCl2, 1.0 mM EGTA, and 0.005% Tween 20, […], and 0.005% Tween 20, pH 7.4, mAb samples were dissolved in the same buffer as the running buffer used. All binding data were analyzed using the Biamolecular Interaction Analysis evaluation program version 3.1.
as §1, with “7.4, KN2/NRY and Mac-158” for “7.4, mAb”, “buffer used at a concentration of 5 μg/ml.” for “buffer used.”
In general terms: SPR reads the build-up and loss of mass on a sensor chip optically.

For experiment [2], the target named is T2, CD163 transfected Flp-In CHO cells (Homo sapiens, UniProt Q86VB7).
T2 construct: Stably transfected Chinese hamster ovary (CHO) cells expressing the full-length human CD163; expressed in transfected cells
T2 sequence (Q86VB7 42-1156): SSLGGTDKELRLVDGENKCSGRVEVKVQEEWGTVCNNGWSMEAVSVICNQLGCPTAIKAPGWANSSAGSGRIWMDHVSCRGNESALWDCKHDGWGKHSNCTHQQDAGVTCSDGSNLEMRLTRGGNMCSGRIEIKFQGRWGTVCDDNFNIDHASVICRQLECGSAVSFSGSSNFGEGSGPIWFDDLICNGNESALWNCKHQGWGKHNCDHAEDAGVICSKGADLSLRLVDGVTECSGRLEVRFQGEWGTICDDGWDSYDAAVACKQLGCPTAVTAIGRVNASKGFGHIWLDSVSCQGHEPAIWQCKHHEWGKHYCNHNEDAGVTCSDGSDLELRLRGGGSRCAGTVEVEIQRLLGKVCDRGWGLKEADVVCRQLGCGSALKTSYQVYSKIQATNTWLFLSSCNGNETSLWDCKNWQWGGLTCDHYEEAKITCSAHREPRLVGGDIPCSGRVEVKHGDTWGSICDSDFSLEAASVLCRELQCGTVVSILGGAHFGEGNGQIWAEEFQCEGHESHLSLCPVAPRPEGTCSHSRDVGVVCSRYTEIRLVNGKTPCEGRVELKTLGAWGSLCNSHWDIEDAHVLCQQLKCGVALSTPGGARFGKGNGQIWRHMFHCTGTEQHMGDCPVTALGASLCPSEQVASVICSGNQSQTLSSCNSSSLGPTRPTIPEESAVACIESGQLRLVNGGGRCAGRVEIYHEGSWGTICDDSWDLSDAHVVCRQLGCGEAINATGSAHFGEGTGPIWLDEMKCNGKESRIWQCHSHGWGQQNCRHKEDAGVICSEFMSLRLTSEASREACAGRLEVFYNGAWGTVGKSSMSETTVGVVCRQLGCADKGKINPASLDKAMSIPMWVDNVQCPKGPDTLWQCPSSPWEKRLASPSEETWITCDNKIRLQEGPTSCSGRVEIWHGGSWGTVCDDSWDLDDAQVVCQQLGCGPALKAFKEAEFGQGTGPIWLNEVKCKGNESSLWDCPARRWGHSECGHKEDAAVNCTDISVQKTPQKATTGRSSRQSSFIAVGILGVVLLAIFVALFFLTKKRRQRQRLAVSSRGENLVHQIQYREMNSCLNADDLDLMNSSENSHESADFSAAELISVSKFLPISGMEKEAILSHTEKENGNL
Put plainly: Cellular binding and uptake (endocytosis) of 125I-labeled anti-CD163. It is filed as cell-based. How it is done: Monocytes were isolated from PBMC by negative selection using magnetic beads from Dynal (Dynabeads® MyPure™ Monocyte Kit 2; Invitrogen A/S, Taastrup, Denmark) according to instructions provided by the manufacturer. Monocyte preparations were more than 95% (CD14^+) pure determined by flow cytometry. The isolated cells were washed twice with phosphate-buffered saline. Monocyte-derived macrophages (MDMs) were prepared by cell culture of monocytes (approximately 1×10^7 cells) for 4 days in 5% CO2 and 37° C. in RPMI 1640 media (RPMI 1640+25 mM HEPES+I-glutamine) (Invitrogen Corporation, Carlsbad, Calif., USA) with 20% FCS containing 100 ng/ml of M-CSF. MDMs were then detached from the flask by incubation with cell dissociation buffer (Invitrogen A/S, Taastrup, Denmark) for 30 minutes at 4 °C, then flushed, and scraped. The cells were then cultured for 24 hours in RPMI 1640 media (RPMI 1640+25 mM HEPES+I-glutamine) (Invitrogen Corporation, Carlsbad, Calif., USA) supplemented with 20% FCS containing 100 ng/ml of M-CSF at 37° C. in 95% air and 5% CO2 in Lab-Tek™ Chamber Slides (Thermo Fisher Scientific, Roskilde, Denmark). 200 nM dexamethasone (Merck KGaA, Darmstadt, Germany) was added during culture to increase CD163 expression. Stably transfected Chinese hamster ovary (CHO) cells expressing the full-length human CD163, as described above, were cultured in serum-free CHO medium (HyQ-CCM, HyClone, Logan, Utah) containing 300 μg/ml Hygromycin B, as previously described (2).
Endocytosis of ^125I-labeled anti-CD163 was investigated in CD163 transfected Flp-In Chinese hamster ovary (CHO) cells and mock-transfected Flp-In as described (Madsen, M., Moller, H. J., Nielsen, M. J., Jacobsen, C., Graversen, J. H., van den Berg, T. and Moestrup, S. K. (2004) Molecular characterization of the haptoglobin.hemoglobin receptor CD163. Ligand binding properties of the scavenger receptor cysteine-rich domain region. J. Biol. Chem., 279, 51561-51567.)

CD163, sequence (Q86VB7 42-1156): as above
T1 sequence (Q86VB7 42-1156): as above

B1: MAC2-158: anti-human CD163 murine mAb, binds SRCR domain 1, IQ Products; VH SEQ ID NO: 1, VL SEQ ID NO: 2 (antibody, V domains shown)
VH: DVQLQESGPGLVKPSQSLSLTCTVTGYSITSDYAWNWIRQFPGNKLEWMGYITYSGITNYNPSLKSQISITRDTSKNQFFLQLNSVTTEDTATYYCVSGTYYFDYWGQGTTLTVSS
VL: SVVMTQTPKSLLISIGDRVTITCKASQSVSSDVAWFQQKPGQSPKPLIYYASNRYTGVPDRFTGSGYGTDFTFTISSVQAEDLAVYFCGQDYTSPRTFGGGTKLEIKRA
modifications: Mac2-158 VH; Mac2-158 VL
Turning to B1, the binding and uptake entry in experiment [1] is “best binding and uptake”. Besides, the “affinity for human CD163 immobilized on a Biacore chip” value in the experiment with CD163 (KN2/NRY compared with Mac2-158, 5 μg/ml, FIG. 19) was “Virtually similar affinities”. Moreover, the “strength of binding to CD163 in Biacore studies” value with CD163 (comparison between mAbs) was “high affinity”. In addition, in the experiment with CD163 (in both 2 mM free Ca2+ and 10 mM EDTA), the “affinities for CD163” value is reported as “nanomolar or sub-nanomolar range”. Besides, the “calcium dependence of binding activity in SPR-analysis” value with CD163 (with/without calcium) was “binding activity regardless extracellular levels of calcium”. Also, in experiment [2] (125I-labelled mAb, increasing time points), the “time course of cell-associated radioactivity (bound or internalized)” value is recorded as “did not reach a plateau”. The “percentage of cell-associated radioactivity reached” value in experiment [2] (125I-labelled mAb, stable CD163 transfected Flp-In CHO cells) is recorded as 61.27%. The “cellular uptake and binding to CD163-expressing cells” value in experiment [2] (compared with the other tested antibodies, FIG. 5) was “considerably higher”.
